Assay results reported in publication PMC9127220 (The Journal of Biological Chemistry, 2022).
Where two headings read alike, the source gives them in different places. One block for each binder: values may come before it.

B4: MukB (natural protein, Escherichia coli, UniProt P22523 1-1486, looked up)
chain: MIERGKFRSLTLINWNGFFARTFDLDELVTTLSGGNGAGKSTTMAAFVTALIPDLTLLHFRNTTEAGATSGSRDKGLHGKLKAGVCYSMLDTINSRHQRVVVGVRLQQVAGRDRKVDIKPFAIQGLPMSVQPTQLVTETLNERQARVLPLNELKDKLEAMEGVQFKQFNSITDYHSLMFDLGIIARRLRSASDRSKFYRLIEASLYGGISSAITRSLRDYLLPENSGVRKAFQDMEAALRENRMTLEAIRVTQSDRDLFKHLISEATNYVAADYMRHANERRVHLDKALEFRRELHTSRQQLAAEQYKHVDMARELAEHNGAEGDLEADYQAASDHLNLVQTALRQQEKIERYEADLDELQIRLEEQNEVVAEAIERQQENEARAEAAELEVDELKSQLADYQQALDVQQTRAIQYNQAIAALNRAKELCHLPDLTADCAAEWLETFQAKELEATEKMLSLEQKMSMAQTAHSQFEQAYQLVVAINGPLARNEAWDVARELLREGVDQRHLAEQVQPLRMRLSELEQRLREQQEAERLLADFCKRQGKNFDIDELEALHQELEARIASLSDSVSNAREERMALRQEQEQLQSRIQSLMQRAPVWLAAQNSLNQLSEQCGEEFTSSQDVTEYLQQLLEREREAIVERDEVGARKNAVDEEIERLSQPGGSEDQRLNALAERFGGVLLSEIYDDVSLEDAPYFSALYGPSRHAIVVPDLSQVTEHLEGLTDCPEDLYLIEGDPQSFDDSVFSVDELEKAVVVKIADRQWRYSRFPEVPLFGRAARESRIESLHAEREVLSERFATLSFDVQKTQRLHQAFSRFIGSHLAVAFESDPEAEIRQLNSRRVELERALSNHENDNQQQRIQFEQAKEGVTALNRILPRLNLLADDSLADRVDEIRERLDEAQEAARFVQQFGNQLAKLEPIVSVLQSDPEQFEQLKEDYAYSQQMQRDARQQAFALTEVVQRRAHFSYSDSAEMLSGNSDLNEKLRERLEQAEAERTRAREALRGHAAQLSQYNQVLASLKSSYDTKKELLNDLQRELQDIGVRADSGAEERARIRRDELHAQLSNNRSRRNQLEKALTFCEAEMDNLTRKLRKLERDYFEMREQVVTAKAGWCAVMRMVKDNGVERRLHRRELAYLSADDLRSMSDKALGALRLAVADNEHLRDVLRMSEDPKRPERKIQFFVAVYQHLRERIRQDIIRTDDPVEAIEQMEIELSRLTEELTSREQKLAISSRSVANIIRKTIQREQNRIRMLNQGLQNVSFGQVNSVRLNVNVRETHAMLLDVLSEQHEQHQDLFNSNRLTFSEALAKLYQRLNPQIDMGQRTPQTIGEELLDYRNYLEMEVEVNRGSDGWLRAESGALSTGEAIGTGMSILVMVVQSWEDESRRLRGKDISPCRLLFLDEAARLDARSIATLFELCERLQMQLIIAAPENISPEKGTTYKLVRKVFQNTEHVHVVGLRGFAPQLPETLPGTDEAPSQAS

Legend:
MukB [1] = molecular target: B4; test: cross-linking
MukB [2] = molecular target: B4; test: co-purification
MukB [3] = molecular target: B4; test: cross-linking; remark: listed apart in the source
cross-linking = molecular target: the molecule itself; test: cross-linking

- binding result (MukB [1]): binds
B1: ParC subunit of topoisomerase IV (natural protein, Escherichia coli, UniProt P0AFI2 1-752, looked up)
chain: MSDMAERLALHEFTENAYLNYSMYVIMDRALPFIGDGLKPVQRRIVYAMSELGLNASAKFKKSARTVGDVLGKYHPHGDSACYEAMVLMAQPFSYRYPLVDGQGNWGAPDDPKSFAAMRYTESRLSKYSELLLSELGQGTADWVPNFDGTLQEPKMLPARLPNILLNGTTGIAVGMATDIPPHNLREVAQAAIALIDQPKTTLDQLLDIVQGPDYPTEAEIITSRAEIRKIYENGRGSVRMRAVWKKEDGAVVISALPHQVSGARVLEQIAAQMRNKKLPMVDDLRDESDHENPTRLVIVPRSNRVDMDQVMNHLFATTDLEKSYRINLNMIGLDGRPAVKNLLEILSEWLVFRRDTVRRRLNYRLEKVLKRLHILEGLLVAFLNIDEVIEIIRNEDEPKPALMSRFGLTETQAEAILELKLRHLAKLEEMKIRGEQSELEKERDQLQGILASERKMNNLLKKELQADAQAYGDDRRSPLQEREEAKAMSEHDMLPSEPVTIVLSQMGWVRSAKGHDIDAPGLNYKAGDSFKAAVKGKSNQPVVFVDSTGRSYAIDPITLPSARGQGEPLTGKLTLPPGATVDHMLMESDDQKLLMASDAGYGFVCTFNDLVARNRAGKALITLPENAHVMPPVVIEDASDMLLAITQAGRMLMFPVSDLPQLSKGKGNKIINIPSAEAARGEDGLAQLYVLPPQSTLTIHVGKRKIKLRPEELQKVTGERGRRGTLMRGLQRIDRVEIDSPRRASSGDSEE

- stoichiometry N (MukB [2]): 1 AcpP:MukB
B2: acyl carrier protein (AcpP) (natural protein, E. coli (endogenous in BL21(DE3)), UniProt P0A6A8 1-78, looked up)
chain: MSTIEERVKKIIGEQLGVKQEEVTNNASFVEDLGADSLDTVELVMALEEEFDTEIPDEEAEKITTVQAAIDYINGHQA

- binding result (MukB [3]): binds
B3: MukF (natural protein, Escherichia coli, UniProt P60293 1-440, looked up)
chain: MSEFSQTVPELVAWARKNDFSISLPVDRLSFLLAVATLNGERLDGEMSEGELVDAFRHVSDAFEQTSETIGVRANNAINDMVRQRLLNRFTSEQAEGNAIYRLTPLGIGITDYYIRQREFSTLRLSMQLSIVAGELKRAADAAEEGGDEFHWHRNVYAPLKYSVAEIFDSIDLTQRLMDEQQQQVKDDIAQLLNKDWRAAISSCELLLSETSGTLRELQDTLEAAGDKLQANLLRIQDATMTHDDLHFVDRLVFDLQSKLDRIISWGQQSIDLWIGYDRHVHKFIRTAIDMDKNRVFAQRLRQSVQTYFDEPWALTYANADRLLDMRDEEMALRDEEVTGELPEDLEYEEFNEIREQLAAIIEEQLAVYKTRQVPLDLGLVVREYLSQYPRARHFDVARIVIDQAVRLGVAQADFTGLPAKWQPINDYGAKVQAHVIDKY

Binder: B4
- binding result (cross-linking): binds
